Data from article PMC4975489, “The Arabidopsis Protein Phosphatase PP2C38 Negatively Regulates the Central Immune Kinase BIK1” (PLoS Pathogens, 2016).

Target: T1, recombinant GST-BIK1 (Arabidopsis thaliana, UniProt O48814 1-395)
T1 construct: BIK1, receptor-like cytoplasmic kinase of Arabidopsis thaliana; source: recombinant protein
T1 sequence (looked up): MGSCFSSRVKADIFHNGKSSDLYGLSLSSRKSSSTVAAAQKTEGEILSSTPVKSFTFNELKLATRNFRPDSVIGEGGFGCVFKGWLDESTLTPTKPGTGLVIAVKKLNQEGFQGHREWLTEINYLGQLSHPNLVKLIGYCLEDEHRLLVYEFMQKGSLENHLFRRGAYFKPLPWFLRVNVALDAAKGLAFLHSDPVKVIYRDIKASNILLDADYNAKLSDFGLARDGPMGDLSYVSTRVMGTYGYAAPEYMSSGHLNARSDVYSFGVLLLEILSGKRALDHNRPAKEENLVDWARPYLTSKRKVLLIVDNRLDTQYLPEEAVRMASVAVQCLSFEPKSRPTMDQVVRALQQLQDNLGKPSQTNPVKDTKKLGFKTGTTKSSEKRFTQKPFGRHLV
Assay: pull-down; recombinant MBP-PP2C38 and GST-BIK1 in column buffer (50 mM Tris pH 7.5, 50 mM NaCl, 0.2% IGEPAL CA-630), 4°C; MBP pull-down on amylose resin
Conditions: both partners purified

B1: recombinant MBP-PP2C38 (enzyme, Arabidopsis thaliana, UniProt Q9LHJ9 1-385, looked up)
chain: MVSSATILRMVAPCWRRPSVKGDHSTRDANGRCDGLLWYKDSGNHVAGEFSMSVIQANNLLEDHSKLESGPVSMFDSGPQATFVGVYDGHGGPEAARFVNKHLFDNIRKFTSENHGMSANVITKAFLATEEDFLSLVRRQWQIKPQIASVGACCLVGIICSGLLYIANAGDSRVVLGRLEKAFKIVKAVQLSSEHNASLESVREELRSLHPNDPQIVVLKHKVWRVKGIIQVSRSIGDAYLKKAEFNREPLLAKFRVPEVFHKPILRAEPAITVHKIHPEDQFLIFASDGLWEHLSNQEAVDIVNTCPRNGIARKLIKTALREAAKKREMRYSDLKKIDRGVRRHFHDDITVIVVFLDSHLVSRSTSRRPLLSISGGGDLAGPST
notes: PP2C38, protein phosphatase 2C of Arabidopsis thaliana (At3g12620); 'PP2C38 CDS was inserted between BamHI and SalI restriction sites of pMAL-c4E'; source: recombinant protein (PP2C38 CDS in pMAL-c4E, NEB)
binding result: binds
